Assay: soluble fraction after stress (log2 fold change); higher = more stays soluble; pooled small domains, quantitative proteomics
Settings: stress: 75 degC
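Further: 20 min heating vs room temperature control held 20 min.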

| Sequence | soluble fraction (log2) |
| --- | --- |
| HMVSYTLPTLHTGKNWYVDFTAYDPAEQKMKRKKYMLDGISKITERRKRAVDIIATVTARLRSGWNPWA | -2.76 |
| HMVTARMPDLFGLDEATAQRMVSNAGLTLKTEYAYSDQAEGYVFDQTPEANAEVRRGGTVTAMIS | 0.069 |
| HMVTEIDYGAFIKMTEEGNIGEVKIEDNQIVFTDKENKAIYKTGIMPDSDLTQRLYDSGAVFA | 0.128 |
| HMVTEKPLYRDELMDHDTVWVEPISMDSHLRMELRGWYHVKNRFVENEVGQRFYFDFYDIKWLAFTNGP | -5.45 |
| HMVTINTASLEKAIADAKAVVKESYTTDSYNAMKAVLDEAEDLLKEEAQDQDTIDAKTEALNAAIEALVKR | 0.166 |
| HMVTLPLLKRGHTGLPVKALQTLLVLRGMSVDVDGSFGEKTESAVRTFQTAAKILSDGEVGKDTWKALI | -1.56 |
| HMVTPPMVVVDVQGEVKTPGVYHLPTNSRVNDAIKAAGGPKQSADLSYINQARMVKDGEQIYVEKKL | 0.0962 |
| HMVTTDPIADMLTRIRNASSQKHKSVDVPASKEKLAIAQILFEEGYIKSFEEIKEENNQGVIRITLKYTEK | -0.733 |
| HMVTVPNYSDPRQYVEWGNANGITINRAVGDTIASMSGRVQDVRDSNGNSVIGKKVKKGSTVTVYIYFLK | -1.08 |
| HMVTVSAVNITPKGHTTVGFTDRSVNPPSNYYLRVGESADGWTVKDADFDDEIATLEKDGVAITLKL | -0.228 |
| HMVTYELTEDEKFIVSLLEKENSQPIGALKDKSALSGKKWDAAMKGLAKHGLTKVVVDGDNKLVVL | -0.0322 |
| HMVVEDDTVLQAVKQAIEENPEAVSDYFEGKSKALNFLVGQVMRITRGKADPAKTNQMVVEELKNR | 0.237 |
| HMVVMKGKVKWFNKNKGYGFIITDDNKEYFVHWKSIVTNSPRELKVLEQDELVTFDLMETDKGIQAINII | -2.19 |
| HMVVPELNLAQQDVLRALRQRGRATADHLSVDTHRPVSEVMGILLGLEIAEVLYRVEGGWFVPKTAR | -2.39 |
| HMVVSDKIAFSSFLKSVEDGRVVEVEITGNDIRGILSDGTVFNTYAPNDPNLVEKLTSKGVNITALPKE | 0.522 |
| HMVVYQRVHDEILQALKDNVYPVGTLLPPEPELERIYSVSRTTVRRAIAKLSEEGYVQVRQGYGTMVLKN | -3.48 |
| HMWGAYHDGQVVKFPKKVTVYVIDGQYKRPLANEFVLKFLNYKTSDIIIDKDGNLNNYKNGAVVEH | -2.79 |
| HMWMQKILGNYIAARRKELGMTQANLAEKIHVTDKAVSRWERGVGLPDIENLEALAKALEVSLVSLMQGKT | -2.36 |
| HMWNGIVDAGKARQHLMNLSQLGVGRRAVAAASDVAETVLMDIRSGTKTRIRARTERQILAVTPEMA | -2.42 |
| HMWNTADDIKEAIWKLIQSEDPKKPYSDLKISQLLLEKEMKISRRTVAKYRKEMGILGTYSRK | -0.603 |
| HMWQPIKLDRGDWQNSLQVGDRVFVRGIPRPVEILSAVDEENNIEVLMGTMRAKIPVYQLDKPAENFIDTT | -0.362 |
| HMWQVVEVDYGTFMSMTEDGQVGRVEIQEQENLILFTDQEETTVYKTAMVDDPDLTARLHDAGIPFYGQE | -1.06 |
| HMWSGEPFLDELRHADTLLETDPEAALAEYRALADKGSAAAMMALGNAYASGSHVARDEGEAEHWYRRAA | 0.0377 |
| HMWSLLVILQLREGGQRFSQLQRAIPDISQRMLTQTLRKLERDGLVSRKVTPSTPPRVDYAITELGH | -0.841 |
| HMWSQEPEYRPLYNSMDGFDAGQVVEMLQQSRIDYKVEPNSGALLVRSEDLADARLRLASAGISP | 0.0488 |

| Sequence | soluble fraction (log2) |
| --- | --- |
| HMYAEVTITIEKGMTSDSVSKLLYKAGIVDDAKEFNNYIIKAGKSTKILIGEFTIQKGASYDDIIKIIA | -3.51 |
| HMYAGTVTQVKNNKVMLEFDGETVNVGDQFFILNSDGKKVAIVEITAAKNKKALANVLKGKAVVDGTTQAK | -0.476 |
| HMYAVDTIHKGTITEMTDKGAVVSLGDNIDGFAPARQLVKEDGTTLKLGDTADFKVIEFSKATKRITLSH | 0.58 |
| HMYAVQKGDTLKKIADQFGISVDTIKWANDMKGDALSIDQELKIP | 0.414 |
| HMYDAEAINKFFDIENWDFGETFYFQELSAYIMNQLSPKLVTILIVPRQTTQAFGSLFEIKSEPDEIFAS | 0.172 |
| HMYDDEELDVLAHRPIESYTDAELAMLREVAETLLETDYEGWLKSLSMRGILLPPEILQLVT | -0.269 |
| HMYDDLEPFDANGRLRWSDKELILAFGRHRGVTLQTLELNDPGYLRWLLSGNGPLEQQDRKRLEDILES | -1.45 |
| HMYDEKTLRKAVLDYVRDNDDGRLDLMKIDSYLTSRYGNIDYAALGYNRLSMFISSFPELRRNSNYVTLRK | -1.44 |
| HMYEDNERNLYSVVINFLNEHKIKISREAINLVINRSSGDKHNLKQELNKILNYSFSNKNITYETIEKLSN | -1.83 |
| HMYEDNERSLVPIVQNFLKEKKILLSNQSINLIVQRSGGDRINLYNELQKIESFSKNQKKIDIGDIIKLTN | -1.03 |
| HMYEDSNQSLNFFAIKFIKEKNIKISQETTNLIVERARGDRGNLINELQKLEALSLTRKKITQEDVFNLTN | -1.99 |
| HMYEGLILINKYDSLVSAKLETNKIKSLGLFFEDMEEKIAVFSGPFKNNDINLKLDFLIRNGYLDAKIY | -4.87 |
| HMYEIEDIKEKLLDLLANSKTGFSGLEISNRLGINRITVSKYLNIFSAEGLIKQKNIGNVIIWFVEDGIE | -0.509 |
| HMYEVDGLGIRIAQLRKKQDLTQEAFARTLGVSPQAVSKWETGIGYPDITLLPQIAKELGVSIDQLFGRN | -0.307 |
| HMYFGDADGNKKVDAADALYLKRHLADWEDYRELPQKTNVSWMDEASPANLMILERHIAGWKDYEMLPYT | -0.425 |
| HMYFMDEETWESKKTLLNDWYEANPEYADRRAISDGLFKIGDLQPDFRRRHWGSIGVIFADIPNSPMG | -0.502 |
| HMYGHKLDSYESYVVSELRRWPFLSAPQIHDRLKEHFSDLPLVTPKTVFNFVNRLRLTHSLPKE | -3.38 |
| HMYGLSFLIGFTVVDRTYGDIGKVTAIDDSTVNTLMAVGDRLIPAQEAFITKIDNTKKIIYTQLPEGLL | -1.17 |
| HMYGTQTVNRGAVQPGMLVKHKDSTWTASANARGRLYLHRGVEMTYTRDLLVEVYLNGLGNGL | 0.158 |
| HMYHADLIGLRVETAAGEKLGTVKAVHNFGAGDVIEITGAEDKDGLMVPFTAEVVPEVDIENGRIVVS | -0.0762 |
| HMYHKKEKAQAANIEERIMILLSDGKHHHITEIKAIYVDEVITLNILEEMLAEEKVIIEGDMIMLVE | -3.64 |
| HMYKLTTQRRAILDVIIENHDKHLNPEEIYDIVKEKYPEIGIATVYRTLQLLEKLNIIYRLNFDDGYNRYE | -2.87 |
| HMYKLTYVVDGEVYLEETVSYGSKIAAAPAPEKEGYTFSGWEGLPEVMPAKDVTVSGSFTVN | -0.69 |
| HMYKMKDRIKKIMEMQRTTQQDFADQLKIAPATLSSIFTGRTRPTLAIVDAIKSRFPQISTDWLMFGKGDM | -0.151 |
| HMYKNAFITYDNNLYYLGSDSKMAIGWQSIGGNTYYFRNWGGMITGKQVIDGKTYVFDEDGKLVQSPD | -1.25 |

| Sequence | soluble fraction (log2) |
| --- | --- |
| HMYLNYQTIGKRIRLLRKQQHLTQMTLAEMVDKSPTYISLVENGQKGPSLETLIDVANALKVTMDVLLAEY | -4.94 |
| HMYLPPYMEVRAVMILDGKPMALMYIEGEGDGLIVSPGYKFDNGKGKVVSITPTKVVVLWAGTKMELG | -3.37 |
| HMYLYHDLSDEAKAMGDEYVSVEHLVLALIRYPNNAVKELFREFGITRERFLQVLSTIRGNQRVTSDNPEA | 0.0272 |
| HMYMFSGQRLKSLRKEKKMSQEKLGSLLNISKVAVSNWENAKSFPTMDNLNELAKVLEVEPHYF | -1.33 |
| HMYMKLSVKDAALFLSVSPETVYRWVKQEEIPYHTVNDQLRFNRAELLEWATARSLEVSPDLFVP | -3.84 |
| HMYMWQVEDLIRANGLDIERIKDSIIRPYELDEERKRELTQWYEDLIDMMRREGVAQSGHLQIN | -3.28 |
| HMYNMEELAGHTEKVYNSLPEELKLVIKLREIENMSYDEISLKTGMPIGTVRSRLHRAREILVDSLKDY | -1.28 |
| HMYQNRLFYTLKTGETVADLSKSQDINLSTIWSLNKHLYSSESEMMKAAPGQQIILPLKKLP | -0.247 |
| HMYQPLRDVIFETLRKAIVSGDIKPGERLMEVSLANQMGVSRTPVREAIRRLEAEGLVTMTPRKGTHVAE | -0.891 |
| HMYQRLPFSFANRYKMVLESQHPERAPILYYVEPLKSAAIIEVSRVVKNGFTPQAITLDEFDKKLTDAYQR | -1.43 |
| HMYRLSPSWRIVERDDGFEIYGGDDARFQLDPSPLVSRLAAGDAVTRDGLDPTGAIEFEQLLSAGMIRPEI | -0.263 |
| HMYRYTTFKVKEADTLLPFIQKSLNGISHNRAKAILTGGGVLVDKKITRAYDFALRPGMTVEISKSKP | -1.72 |
| HMYRYYSTLRPITPGAYPKPADNPAMLIHNFDNREYVGKIGREAWGYVEYNNPLTKEQIEAFDFVAE | 0.0626 |
| HMYSDIERAMTNAPEQFANKQAVLDFLNKNRIKKSEVDDYRIASLLKLYDDASPISKTEIISQVRT | 0.396 |
| HMYSDQRMEIFLEHLPDFIEQLSHKHVTRQMVWEDYRMIYPDGYGKSQFFFHLAQNLKAQKP | -3.21 |
| HMYSYSFTSSEGSTFEGQLIRVEESQVTILRYADQKEFSIPKSRFIEADQVYFERWAIENPQL | -4.18 |
| HMYSYSGSVSNTHDVPVSVVLKDAEGVAIASWDLQAKQSLNISAKDIATSSGTIEITGDGVSETKTVTFTK | 1.03 |
| HMYTVKELSRLTGLTPRTLRYYDAIGLLSPARNRDNDYRLYGGAEVDRLQEILLYREMGLPLEEIGRILD | -1.51 |
| HMYTVQPHESLWSIAASQLGDGHRFTEIVDLNQELLGGKANFIKPGWVLQIP | -0.362 |
| HMYTVVVGDSPSLIADKTGVPLKELTAMNPNLSDNFLPGKQLL | -0.0135 |
| HMYVEVPNFIGVPLVKVQSELASLGLVFNKSVVYQTSPYLKGNILDQRPLPGEVVPLNTEMSFTVSSGPA | -0.5 |
| HMYVKIAADAAMPYTIKRVVTDYSSAALDAAYDGSLPKWLTISSSTKDAGSGLYRHEIIYTVTAHPE | -0.666 |
| HMYVYEPGEFAVRGSILDVYSYASEFPYRIDFFGDDVESIRTFEVQTQLSKEAKDRVSIVPDTEQ | -0.258 |
| HMYYNDEELDGYRGTPSDAYSDNAVEEFREVLYTLREDEVSGWVRSLQLRGIFLPDAIKDETFLI | -1.33 |
| HMYYTAPDGRKREILDAALRLIAAGGPDSLTYRRVADEAGVPLGSLTYYFEAREDLIREAFRLYIAEASR | -3.16 |

— the domain aggregation screens of Martell et al. (2025)
